{"source": "patent US20020048584A1", "about": "“Method of treating residual HIV-I disease” (priority 2000, published 2002)", "key": {"[1]": {"experiment": "Safety and tolerability of IL-2 and OKT3 stimulation therapy with hydroxyurea and ddI intensification in patients on HAART", "type": "in vivo, human", "description": "Treatments with OKT3 and IL-2 are initiated with a physician present during a four to five day admission to the Bone Marrow Transplant Unit. The first dose of IL-2 is given 24 hours after infusion of OKT3, and continued for a total of fourteen days. After 72 hours, if the patient has no or mild adverse side-effects, then the patient can be discharged and followed in the Infectious Disease Clinic as an out-patient, continuing IL-2 administration at home. […] Of note, further treatments with OKT3 may not be possible due to the potential production of human anti-murine antibodies ([…]., et al., Transplant Rev. 5: 181-199, 1991). […] The NIAID standardized toxicity grading system will be utilized (Table 3). Toxicity is graded on a 1 to 4 scale. When toxicity is encountered the dose administered to subjects is modified. […] Level 2 dose reduction will include discontinuation from the study. For hydroxyurea, Level 1 dose reduction will be to 800 mg qday (400 mg po BID)."}, "CD4+ T-lymphocytes": {"system": "CD4+ T-lymphocytes", "details": "cited from earlier work"}, "[2]": {"details": "in vivo; cited from earlier work"}, "[3]": {"details": "OKT3 over 5 to 15 minutes on first day, followed by IL-2; cited from earlier work"}, "T-lymphocytes": {"system": "T-lymphocytes", "details": "solid organ transplant subjects; cited from earlier work"}}, "data": [{"molecule": "O=c1[nH]cnc2c1ncn2[C@H]1CC[C@@H](CO)O1", "note": "[ddI, didanosine, reference compound]", "values": [{"measurement": "serious adverse side-effects", "setting": "[1]; patient #28, entire trial", "value": "did not have serious adverse side-effects"}]}, {"molecule": "NC(=O)NO", "note": "[hydroxyurea, reference compound]", "values": [{"measurement": "serious adverse side-effects", "setting": "[1]; patient #28, entire trial", "value": "did not have serious adverse side-effects"}]}, {"molecule": "IL-2: cytokine, 15,300 daltons, produced via recombinant DNA technology using genetically-engineered E. coli (Proleukin; Chiron)", "values": [{"measurement": "increase in CD4+ T-lymphocytes", "setting": "CD4+ T-lymphocytes; intravenous 18×10^6 IU per day, five-day treatments every two months, 6 cycles, baseline CD4+ greater than 200 cells/mm^3", "value": "approximately 400 cells per mm3"}, {"measurement": "CD4+ T-lymphocyte count, mean value after treatment", "setting": "CD4+ T-lymphocytes; subcutaneous, 5 day courses every 8 weeks for 6 cycles, starting 7.5×10^6 IU bid, mean 355 at entry", "value": 739}, {"measurement": "serious adverse side-effects", "setting": "[1]; human, in vivo", "value": "did not have serious adverse side-effects"}]}, {"molecule": "OKT3: purified murine monoclonal antibody (IgG2a) directed to the CD3 antigen of human T-lymphocytic cells", "values": [{"measurement": "chest pain, patients", "setting": "[2]", "value": 14, "unit": "%"}, {"measurement": "dyspnea, patients", "setting": "[2]", "value": 21, "unit": "%"}, {"measurement": "headache, patients", "setting": "[2]", "value": 11, "unit": "%"}, {"measurement": "hypertension, patients", "setting": "[2]", "value": 8, "unit": "%"}, {"measurement": "nausea, patients", "setting": "[2]", "value": 19, "unit": "%"}, {"measurement": "rigor, patients", "setting": "[2]", "value": 8, "unit": "%"}, {"measurement": "tachycardia, patients", "setting": "[2]", "value": 10, "unit": "%"}, {"measurement": "tremor, patients", "setting": "[2]", "value": 13, "unit": "%"}, {"measurement": "vomiting, patients", "setting": "[2]", "value": 19, "unit": "%"}, {"measurement": "wheezing, patients", "setting": "[2]", "value": 13, "unit": "%"}, {"measurement": "maximum tolerated dose (MTD)", "setting": "[3]", "value": 400, "unit": "μg/m^2"}, {"measurement": "serious adverse side-effects", "setting": "[1]; human, in vivo", "value": "did not have serious adverse side-effects"}, {"measurement": "time to return of T-cell function to baseline levels after termination", "setting": "T-lymphocytes", "value": "one"}]}]}
